Laboratory results reported in article PMC3639176, “HnRNP A1/A2 and SF2/ASF Regulate Alternative Splicing of Interferon Regulatory Factor-3 and Affect Immunomodulatory Functions in Human Non-Small Cell Lung Cancer Cells”.

What was measured:
[1] = target: GST-hnRNP A1 (UniProt P09651 1-372); assay: EMSA; 2 ug tRNA competitor; LightShift Chemiluminescent EMSA kit; 20 fmol biotinylated RNA, 50 ng protein (20 ng in Fig. 3 legend), 2 ug tRNA, 20 ul, 20 min, room temperature; 6% native PAGE; buffer, salt and pH not stated; details: protein: recombinant; label: 3' biotin
[2] = target: GST-SF2/ASF (UniProt Q07955 1-248); assay: as above; details: protein: recombinant; label: 3' biotin
Chain of GST-SF2/ASF (Q07955 whole entry): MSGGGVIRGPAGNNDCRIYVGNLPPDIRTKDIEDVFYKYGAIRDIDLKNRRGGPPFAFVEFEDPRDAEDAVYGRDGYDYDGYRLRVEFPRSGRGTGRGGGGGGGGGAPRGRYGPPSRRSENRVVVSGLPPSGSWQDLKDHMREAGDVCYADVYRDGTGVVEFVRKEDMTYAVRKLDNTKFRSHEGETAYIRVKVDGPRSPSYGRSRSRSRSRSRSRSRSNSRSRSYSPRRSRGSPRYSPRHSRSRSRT

Chain of GST-hnRNP A1 (P09651 whole entry): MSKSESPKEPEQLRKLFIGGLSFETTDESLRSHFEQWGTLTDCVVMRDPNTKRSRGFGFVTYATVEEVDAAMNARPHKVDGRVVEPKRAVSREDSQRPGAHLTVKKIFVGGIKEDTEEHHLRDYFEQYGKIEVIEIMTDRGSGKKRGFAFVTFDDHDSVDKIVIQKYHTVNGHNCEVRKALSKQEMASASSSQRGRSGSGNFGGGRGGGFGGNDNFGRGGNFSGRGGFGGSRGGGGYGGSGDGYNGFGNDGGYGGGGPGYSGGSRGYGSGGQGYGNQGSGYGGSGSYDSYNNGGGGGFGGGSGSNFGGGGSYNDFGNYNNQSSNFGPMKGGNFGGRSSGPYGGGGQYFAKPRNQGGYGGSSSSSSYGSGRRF

Binder | binding result [1] | binding result [2]
UGAAAUAACUAGGGAAAGAGGAUG (ssRNA) [wt-A1] | binds | –
ACGCUGGGGAAGGAUGUGCCAUGGAUAUGGGAAGGAACCCUAG (ssRNA) [wt-SF2] | – | binds
